Where “and” joins values, the source holds several entries; their conditions need not be identical. Identical values can stand only once. Entries after “also recorded” stand apart in the source; their conditions may differ.
How the values were obtained:
[1] = system: neovascular tuft formation; assay: Laser-induced choroidal neovascularization, SecinH3; assay type: in vivo; details: wild-type mice, intravitreal injection, final concentration 21.6 μM, versus DMSO
[2] = system: HMVEC; assay: VEGF induced migration of HMVECs (modified Boyden chamber); assay type: cell-based, human
[3] = system: neovascular tuft formation; assay: Oxygen-induced retinopathy, SecinH3; assay type: in vivo; details: wild-type mice, intraocular injection, final concentration 21.6 μM, versus DMSO
[4] = system: ARF6; assay: VEGF induced ARF6-GTP, HMVEC, SecinH3; assay type: cell-based, human
[5] = system: endothelial cell migration; assay: VEGF-induced endothelial cell migration by Slit constructs (FIG. 23); assay type: cell-based; details: Slit constructs 2 nM, compared with full length Slit2; listed as Slit2-D1
[6] = system: Avian Flu Virus, strain H5N1/Duck/Mn/1525/81; set-up: species or system BALB/c mice; details: mouse, in vivo
[7] = system: choroidal neovascularization; assay: Laser-induced choroidal neovascularization (CNV), Slit2N; assay type: in vivo; details: Robo4^+/+ mice, intravitreal administration
[8] = system: dermal permeability; assay: Miles assay / VEGF-induced dermal permeability; assay type: in vivo; details: Robo4^+/+ mice, concomitant intradermal Slit2
[9] = system: lung endothelial cells; assay: VEGF-A endothelial cell migration assay, murine lung endothelial cells; assay type: cell-based, mice
[10] = system: Rho; assay: Rho-GTP levels, endothelial cells on fibronectin; assay type: cell-based; details: presence of Slit2
[11] = system: human microvascular endothelial cells; assay: Haptotaxis migration assay, human microvascular endothelial cells; assay type: cell-based; details: transwells coated with fibronectin and Slit2
[12] = system: lung endothelial cells; assay: VEGF-A tube formation assay, murine lung endothelial cells; assay type: cell-based, mice
[13] = system: VEGFR2; assay: VEGF-A-induced VEGFR2 phosphorylation, HMVEC; assay type: cell-based, human; details: 5 minutes
[14] = system: murine lung endothelial cells; assay: bFGF-induced tube formation on matrigel; assay type: cell-based
[15] = system: ARF6; assay: ARF6 activation assay (GST-GGA3), endothelial cells on fibronectin; assay type: cell-based; details: endothelial cells on fibronectin and Slit2
[16] = system: LPS; assay: Acute lung injury, intratracheal LPS, bronchoalveolar lavage; assay type: in vivo, mice; details: versus Mock preparation
[17] = system: c-Src; assay: VEGF-A-stimulated c-Src phosphorylation, HMVEC; assay type: cell-based, human; details: endothelial cells (HMVEC)
[18] = system: lung endothelial cells; assay: In vitro permeability assay (Transwell, HRP); assay type: cell-based, mice; details: Robo4^+/+ endothelial cell monolayers, pre-treatment with Slit2
[19] = system: Rac; assay: VEGF-induced Rac activation in HUVEC; assay type: cell-based, human; details: GST-PBD pull down
[20] = system: pathological angiogenesis; assay: Oxygen-induced retinopathy (OIR), Slit2N; assay type: in vivo; details: Robo4^+/+ mice, intravitreal administration
[21] = system: ARF6; assay: ARF6 activation assay (GST-GGA3), endothelial cells on VEGF-165; assay type: cell-based; details: endothelial cells on dishes coated with VEGF-165 and Slit2
[22] = system: Rac; assay: Rac-GTP levels, endothelial cells on fibronectin; assay type: cell-based; details: endothelial cells on fibronectin and Slit2
[23] = system: Cdc42; assay: Cdc42-GTP levels, endothelial cells on fibronectin; assay type: cell-based; details: presence of Slit2
[24] = system: endothelial cells; assay: Spreading assay, endothelial cells; assay type: cell-based, human
[25] = system: Rac1; assay: VEGF-A-dependent Rac1 activation, HMVEC; assay type: cell-based, human; details: endothelial cell monolayers (HMVEC)
[26] = system: retinal endothelium; assay: VEGF induced retinal permeability (Evans Blue), Slit2; assay type: in vivo, mice; details: intravitreal co-injection
[27] = system: neovascularization of the retina; assay: Retinopathy of prematurity: percent neovascularization of the retina (FIG. 12); assay type: in vivo; details: wildtype mice, Slit versus Mock preparation, N=6, P<0.003
[28] = endothelial cells pre-treated with inhibitor or vehicle (Example 28)

With `COc1nc(-c2ccc3c(c2)OCO3)n(-c2ccc(NC(=O)CSc3ccccc3)cc2)n1` [SecinH3] the “neovascular tuft formation in CNV” value [1] was “inhibited”, the “VEGF-165 induced cell migration response” value ([2]; HMVEC, 15 ng/ml VEGF-165, 15 μM Secin-H3, 3 h) was “attenuated; also recorded: inhibits” and the VEGF-induced cell migration [2, 28] was “prevented”. The “neovascular tuft formation in OIR” value [3] was “inhibited”, the “accumulation of ARF6-GTP” value ([4]; HMVEC, 20 ng/ml VEGF, 50 μM Secin-H3) was “blocks; also recorded: inhibits” and the “VEGF-induced Arf6 activation” value [4, 28] was “prevented”.

B1: SlitD1 (protein)
chain: ILNKVAPQACPAQCSCSGSTVDCHGLALRSVPRNIPRNTERLDLNGNNITRITKTDFAGLRHLRVLQLMENKISTIERGAFQDLKELERLRLNRNHLQLFPELLFLGTAKLYRLDLSENQIQAIPRKAFRGAVDIKNLQLDYNQISCIEDGAFRALRDLEVLTLNNNNITRLSVASFNHMPKLRTFRLHSNNLYCDCHLAWLSDWLRQRPRVGLYTQCMGPSHLRGHNVAEVQKREFVCSGHQS
For B1, the “Inhibition of VEGF mediated endothelial cell migration” value [5] was “active”.

B2: Slit2N (protein)
chain: QACPAQCSCSGSTVDCHGLALRSVPRNIPRNTERLDLNGNNITRITKTDFAGLRHLRVLQLMENKISTIERGAFQDLKELERLRLNRNHLQLFPELLFLGTAKLYRLDLSENQIQAIPRKAFRGAVDIKNLQLDYNQISCIEDGAFRALRDLEVLTLNNNNITRLSVASFNHMPKLRTFRLHSNNLYCDCHLAWLSDWLRQRPRVGLYTQCMGPSHLRGHNVAEVQKREFVCSGHQSFMAPSCSVLHCPAACTCSNNIVDCRGKGLTEIPTNLPETITEIRLEQNTIKVIPPGAFSPYKKLRRIDLSNNQISELAPDAFQGLRSLNSLVLYGNKITELPKSLFEGLFSLQLLLLNANKINCLRVDAFQDLHNLNLLSLYDNKLQTIAKGTFSPLRAIQTMHLAQNPFICDCHLKWLADYLHTNPIETSGARCTSPRRLANKRIGQIKSKKFRCSAKEQYFIPGTEDYRSKLSGDCFADLACPEKCRCEGTTVDCSNQKLNKIPEHIPQYTAELRLNNNEFTVLEATGIFKKLPQLRKINFSNNKITDIEEGAFEGASGVNEILLTSNRLENVQHKMFKGLESLKTLMLRSNRITCVGNDSFIGLSSVRLLSLYDNQITTVAPGAFDTLHSLSTLNLLANPFNCNCYLAWLGEWLRKKRIVTGNPRCQKPYFLKEIPIQDVAIQDFTCDDGNDDNSCSPLSRCPTECTCLDTVVRCSNKGLKVLPKGIPRDVTELYLDGNQFTLVPKELSNYKHLTLIDLSNNRISTLSNQSFSNMTQLLTLILSYNRLRCIPPRTFDGLKSLRLLSLHGNDISVVPEGAFNDLSALSHLAIGANPLYCDCNMQWLSDWVKSEYKEPGIARCAGPGEMADKLLLTTPSKKFTCQGPVDVNILAKCNPCLSNPCKNDGTCNSDPVDFYRCTCPYGFKGQDCDVPIHACISNPCKHGGTCHLKEGEEDGFWCICADGFEGENCEVNVDDCEDNDCENNSTCVDGINNYTCLCPPEYTGELCEEKLDFCAQDLNPCQHDSKCILTPKGFKCDCTPGYVGEHCDIDFDDCQDNKCKNGAHCTDAVNGYTCICPEGYSGLFCEFSPP
With B2 the mortality [6] was “lower mortality”, the survivability rate [6] was 25% and 50% and the “Av. Wt.” value ([6]; iv) was 17.4 grams and 18.5 grams and 16.0 grams and 15.4 grams. For the same molecule, the “angiogenesis in laser-induced choroidal neovascularization” value [7] was “reduced”, the “VEGF-A-stimulated leak of Evans Blue into the dermis” value [8] was “prevented” and the “VEGF-A-dependent endothelial cell migration” value ([9]; Robo4^+/+ endothelial cells) was “inhibited”. The “VEGF-A-dependent endothelial cell migration, inhibitory activity” value ([9]; Robo4^AP/AP endothelial cells) was “lost”, the Rho activation [10] was “unaltered” and the “fibronectin-driven cell migration (haptotaxis)” value [11] was “blocked”. The VEGF-A-dependent tube formation ([12]; Robo4^+/+ endothelial cells) was “inhibited”, the “VEGF-A-dependent tube formation, inhibitory activity” value ([12]; Robo4^AP/AP endothelial cells) was “lost” and the “VEGF-A-induced VEGFR2 phosphorylation” value [13] was “no effect”. The “bFGF-induced endothelial tube formation” value [14] was “blocked”, the “fibronectin-induced increase in ARF6-GTP” value [15] was “efficiently blocked” and the “concentration of inflammatory cells in bronchoalveolar lavages (BAL)” value [16] was “significantly lower”. For the same molecule, the “concentration of protein in bronchoalveolar lavages (BAL)” value [16] was “significantly lower”, the “concentration of inflammatory cells in bronchoalveolar lavages (BAL)” value ([16]; listed as Slit protein) was “significantly reduced” and the “concentration of protein in bronchoalveolar lavages (BAL)” value ([16]; listed as Slit protein) was “significantly reduced”. For the same molecule, the “VEGF-A-stimulated phosphorylation of c-Src” value [17] was “reduced”, the “VEGF-A-enhanced accumulation of HRP in the lower chamber” value [18] was “prevented” and the “VEGF-stimulated Rac activation” value [19] was “completely suppressed”. The “angiogenesis in oxygen-induced retinopathy” value [20] was “markedly reduced”, the “VEGF-165-induced ARF6 activation” value [21] was “prevented” and the “fibronectin-induced increase in Rac-GTP” value [22] was “efficiently blocked”. The Cdc42 activation [23] was “significantly reduced”, the “cell spreading on fibronectin” value [24] was “markedly inhibited” and the “cellular protrusive activity stimulated by integrin ligation (spreading)” value ([24]; endothelial cells on 9-11 fragment of fibronectin and Slit2) was “suppressed”. The “VEGF-A-dependent Rac1 activation” value [25] was “prevented”, the “VEGF-A induced leak of Evans Blue from the retinal blood vessels” value ([26]; Robo4^+/+ mice) was “suppressed” and the “VEGF-A induced leak of Evans Blue from the retinal blood vessels” value ([26]; Robo4^AP/AP mice) was “refractory”. It also gave a reduction in neovascularization [27] of 63%.

— patent US20100222401A1, “COMPOSITIONS AND METHODS FOR TREATING PATHOLOGIC ANGIOGENESIS AND VASCULAR PERMEABILITY” (priority 2008, published 2010)
